The star is where a group is joined. FITC = O=C1OC2(c3ccc(O)cc3Oc3cc(O)ccc32)c2ccc(NC(=S)*)cc21; βAla = NCCC(=O)O
Tests used:
[1] = target: HA-EcGlpG S201A+H254A (inactive mutant) (Escherichia coli, UniProt P09391 1-276, S201A | H254A); assay: SEC
[2] = target: T1, His-EcGlpG C104A+H254A (inactive mutant) (Escherichia coli, UniProt P09391 1-276, C104A | H254A); assay: pull-down
T1 sequence (looked up): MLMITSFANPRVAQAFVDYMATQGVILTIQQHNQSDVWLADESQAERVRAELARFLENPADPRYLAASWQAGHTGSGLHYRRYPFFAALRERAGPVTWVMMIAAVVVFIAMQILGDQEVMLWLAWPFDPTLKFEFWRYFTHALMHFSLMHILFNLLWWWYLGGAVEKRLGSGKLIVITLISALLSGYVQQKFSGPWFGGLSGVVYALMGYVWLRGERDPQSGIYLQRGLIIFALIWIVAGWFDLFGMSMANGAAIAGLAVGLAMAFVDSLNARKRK

B1: FITC-TatA (Providencia stuartii TatA residues 1-33 of 97) (peptide)
chain: {FITC-βAla}-MESTIATAAFGSPWQLIIIALLIILIFGTKKLR-NH2
SMILES: CC[C@H](C)[C@H](NC(=O)[C@H](CC(C)C)NC(=O)[C@@H](NC(=O)[C@@H](NC(=O)[C@H](CC(C)C)NC(=O)[C@H](CC(C)C)NC(=O)[C@H](C)NC(=O)[C@@H](NC(=O)[C@@H](NC(=O)[C@@H](NC(=O)[C@H](CC(C)C)NC(=O)[C@H](CCC(N)=O)NC(=O)[C@H](Cc1c[nH]c2ccccc12)NC(=O)[C@@H]1CCCN1C(=O)[C@H](CO)NC(=O)CNC(=O)[C@H](Cc1ccccc1)NC(=O)[C@H](C)NC(=O)[C@H](C)NC(=O)[C@@H](NC(=O)[C@H](C)NC(=O)[C@@H](NC(=O)[C@@H](NC(=O)[C@H](CO)NC(=O)[C@H](CCC(=O)O)NC(=O)[C@H](CCSC)NC(=O)CCNC(=S)Nc1ccc2c(c1)C(=O)OC21c2ccc(O)cc2Oc2cc(O)ccc21)[C@@H](C)O)[C@@H](C)CC)[C@@H](C)O)[C@@H](C)CC)[C@@H](C)CC)[C@@H](C)CC)[C@@H](C)CC)[C@@H](C)CC)C(=O)N[C@@H](Cc1ccccc1)C(=O)NCC(=O)N[C@H](C(=O)N[C@@H](CCCCN)C(=O)N[C@@H](CCCCN)C(=O)N[C@@H](CC(C)C)C(=O)N[C@@H](CCCNC(=N)N)C(N)=O)[C@@H](C)O
Kd [1]: 191 ± 29.4 µM
Kd [2]: ≥ 1000 µM

Source: article PMC3917317 (Cell, 2013)
